According to paper PMC11343202:

Molecular target: GFP with a c-Myc nuclear localization signal at the C-terminus (GFP-NLS)
Experiment: label-free LC MS/MS

“AAV-DJ capsid incorporating VP1 with a GFPnb inserted at position H631, supplemented with wild type VP2/VP3 (complex)” gave a GFP:capsid (GFP-NLS per capsid) of 1 to 3.
